B1: LINE1-full (parent)
chain: UACGUAGGUGGUUUUCCCCUGAUAGUGCUAAGGGGGCCUGGAAGUUUGGACUGGGCAGAGCUCAACACAGCGUGGCAAAGUGGCUGUGGCUAGACUGCCUCUCUGGAUUCCUCGUCACUCAGCAGGGCAUCUCUGAGAGAAAUGCC

Variants of: B1
Assay: self-cleavage, relative activity (ratio to wild type); higher = more cleavage; in vitro, sequencing; the parent is a self-cleaving ribozyme

Row | Variant | self-cleavage
1 | UACGUAAGUGGUUUUCCCCUGAUAGUGCUAAGGGGGCCUGGAAGUUUGGACUGGGCAGAGCUCAACACAGCGAGGCAAAGUGGCUGUGGCUAGACUGCCUCUCUGGAUUCCUCGUCACUCAGCAGGGCAUCUCUGAGAGAAAUGCC [G7A U73A] | 1.31
2 | UACGUUGGUGGUUUUCCCCUGAUAGUGCUAAGGGGGCCUGGAAGUUUGGACUGGGCAGAGCUCAACACAGCGUGGCAAAGUGGCUGUGGCCAGACUGCCUCUCUGGAUUCCUCGUCACUCAGCAGGGCAUCUCUGAGAGAAAUGCC [A6U U91C] | 0.52
3 | UACGUAACUGGUUUUCCCCUGAUAGUGCUAAGGGGGCCUGGAAGUUUGGACUGGGCAGAGCUCAACACAGCGUGGCAAAGUGGCUGUGGCUAGACUGCCUCUCUGGAUUCCUCGUCACUCAGCAGGGCAUCUCUGAGAGAAAUGCC [G7A G8C] | 0
4 | UACGUAAGUGGUUUUCCCCUGAUAGUGCUAAGGGGGCCUGGAAGUUUGGACUGGGCAGAGCUCAACACAGCGUGGCAAAGUGGCUGUGGCUAGACUACCUCUCUGGAUUCCUCGUCACUCAGCAGGGCAUCUCUGAGAGAAAUGCC [G7A G97A] | 0.1
5 | UACGUAAGUGGUUUUCCCCUGAUAGUGCUAAGGGGGCCUGGAAGUUUGGACUGGGCAGAGCUCAACACAGCGUGGCAAAGUGGCUGUGGCUAGACUGCCUCUCUGGAUUCCUCGUCACUCGGCAGGGCAUCUCUGAGAGAAAUGCC [G7A A121G] | 1.18
6 | UACGUAAGUGGUUUUCCCCUGAUAGUGCUAAGGGGGCCUGGAAGUUUGGACUGGGCAGAGCUCAACACAGCGUGGCAAAGUGGCUGUGGCUAGACUGCCUCUCAGGAUUCCUCGUCACUCAGCAGGGCAUCUCUGAGAGAAAUGCC [G7A U104A] | 1.11
7 | UACGUAAGUGGUUUUCCCCUGAUAGUGCUAAGGGGGCCUGGAAGUUUGGACUGGGCAGAGCUCAACACAGCGUGGCAAAGUGGCUGUGGCUAGACUGCCUCUCCGGAUUCCUCGUCACUCAGCAGGGCAUCUCUGAGAGAAAUGCC [G7A U104C] | 1.15
8 | UACGUAAGUGGUUUUCCCCUGAUAGUGCUAAGGGGGCCUGGAAGUUUGGACUGGGCAGAGCUCAACACAGCGUGGCAAAGUGGCUGUGGCUAGACUGCCUCUCUGGAUUCCUCGUCACUCAGCAGGGCCUCUCUGAGAGAAAUGCC [G7A A129C] | 1.07
9 | UACGUAAGUGGUUUUCCCCUGAUAGUGCUAAGGGGGCCUGGAAGUUUGGACUGGGCAGAGCUCAACACAGCGUGGCAAAGUGGCUGUGGCUAGACUGCCUCUCUGGAUUCCUCGUCACUCAGCAGGGCGUCUCUGAGAGAAAUGCC [G7A A129G] | 1.85
10 | UACGUAAGUGGUUUUCCCCUGAUAGUGCUAAGGGGGCCUGGAAGUUUGGACUGGGCAGAGCUCAACACAGCGUGGCAAGGUGGCUGUGGCUAGACUGCCUCUCUGGAUUCCUCGUCACUCAGCAGGGCAUCUCUGAGAGAAAUGCC [G7A A79G] | 0.61
11 | UACGUAAGUGGUUUUCCCCUGAUAGUGCUGAGGGGGCCUGGAAGUUUGGACUGGGCAGAGCUCAACACAGCGUGGCAAAGUGGCUGUGGCUAGACUGCCUCUCUGGAUUCCUCGUCACUCAGCAGGGCAUCUCUGAGAGAAAUGCC [G7A A30G] | 0.84
12 | UACGUUGGUGGUUUUCCCCUGAUAGUGCUAAGGGGGCCUGGAAGUUUGGACUGGGCAGAGCUCAACACAGCGUGGCAAAGUGGCUGCGGCUAGACUGCCUCUCUGGAUUCCUCGUCACUCAGCAGGGCAUCUCUGAGAGAAAUGCC [A6U U87C] | 0.16
13 | UACGUUGGUGGUUUUCCCCUGAUAGUGCUAAGGGGGCCUGGAAGUUUGGACUGGGCAGAGCUCAACACAGCGUGGCAAAGUGGCUGAGGCUAGACUGCCUCUCUGGAUUCCUCGUCACUCAGCAGGGCAUCUCUGAGAGAAAUGCC [A6U U87A] | 0.15
14 | UACGUAAGUGGUUUUCCCCUGAUAGUGCUAAGGGGGCCUGGAAGUUUGGACUGGGCAGAGCUCAACACAGCGUGGCAAAGUGGCUGUGACUAGACUGCCUCUCUGGAUUCCUCGUCACUCAGCAGGGCAUCUCUGAGAGAAAUGCC [G7A G89A] | 0.02
15 | UACGUUGGUGGUUUUCCCCUGAUAGUGCUAAGGGGGCCUGGAAGUUUGGACUGGGCAGAGCUCAACACAGCGUGGCAAAGUGGCUGUGGCUAGACUGCCUCUCUGGAUUCCUCGUCACUCAGCAGGGCAUCUCUGAGAGAAAGGCC [A6U U143G] | 1.12
16 | UACGUAAGUGGUUUUCCCCUGAUAGUGCUAAGGGGGCCUGGAAGUUUGGACUGGGCAGAGCUCAACACAGCGUGGCAAAGUGGCUGUGGCUAGACUGCCUCUCUGGACUCCUCGUCACUCAGCAGGGCAUCUCUGAGAGAAAUGCC [G7A U108C] | 1.57
17 | UACGUAAGUGGUUUUCCCCUGAUAGUGCUAAGGGGGCCUGGAAGUUUGGACUGGGCAGAGCUCAACACAGCGUGGCAAAGUGGCCGUGGCUAGACUGCCUCUCUGGAUUCCUCGUCACUCAGCAGGGCAUCUCUGAGAGAAAUGCC [G7A U85C] | 0.11
18 | UACGUUGGUGGUUUUCCCCUGAUAGUGCUAAGGGGGCCUGGAAGUUUGGACUGGGCAGAGCUCAACACAGCGUGGCAAAGUGGCUGUGGCUAGACUGCCUCCCUGGAUUCCUCGUCACUCAGCAGGGCAUCUCUGAGAGAAAUGCC [A6U U102C] | 0.68
19 | UACGUUGGUGGUUUUCCCCUGAUAGUGCUAAGGGGGCCUGGAAGUUUGGACUGGGCAGAGCUCAACACAGCGUGGCAAAGUGGCUGUGGCUAGACUGCCUCUCUGGAUUCCUCGUCACACAGCAGGGCAUCUCUGAGAGAAAUGCC [A6U U119A] | 1.74
20 | UACGUAAGUGGUUUUCCCCUGAUAGUGCUAAGGGGGCCUGGAAGUUUGGACUGGGCUGAGCUCAACACAGCGUGGCAAAGUGGCUGUGGCUAGACUGCCUCUCUGGAUUCCUCGUCACUCAGCAGGGCAUCUCUGAGAGAAAUGCC [G7A A57U] | 0.07
